Reference: article PMC3504642

Assays:
FcεRIα (Homo sapiens) = FcεRIα (Homo sapiens) (UniProt P12319); conditions: cited from earlier work
[1] = target: AF488-Fc (C328A/K367C IgE-Fc Cε3-Cε4 protein labeled with Alexa Fluor 488 at residue 367); assay: other fluorescence titration

Row | Kd [1] | Substance | Kd (FcεRIα (Homo sapiens))
1 | – | IgE Fc Fc (Cε2-Cε4) (from UniProt P01854) | < 0.001 µM
2 | 0.022 µM | soluble FcεRI α-chain ectodomain (from UniProt P12319 26-205) (receptor) | –
